Source: patent US20230348881

How the values were obtained:
[1] = system: exemplary modified PPE proproteins
[2] = system: wild-type PPE proprotein as used in Example 2
Chain of wild-type PPE proprotein as used in Example 2 (chain, as listed by the source): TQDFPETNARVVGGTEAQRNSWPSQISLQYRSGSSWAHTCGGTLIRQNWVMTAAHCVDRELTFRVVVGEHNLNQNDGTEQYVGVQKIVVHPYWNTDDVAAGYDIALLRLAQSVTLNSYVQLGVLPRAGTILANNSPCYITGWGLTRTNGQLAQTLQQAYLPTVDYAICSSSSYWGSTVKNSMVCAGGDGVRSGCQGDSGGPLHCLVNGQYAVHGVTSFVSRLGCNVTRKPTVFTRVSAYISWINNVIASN

Substance: purified trypsin
- catalytic activity after protease digestion (colorimetric substrate assay), FIG. 4B [1]: catalytically-inactive after incubation with trypsin or no protease
- catalytic activity after protease digestion (colorimetric substrate assay), FIG. 4B [2]: the wild-type PPE protein was catalytically-active after incubation with trypsin
- protease cleavage by SDS-PAGE and Coomassie blue staining [2]: trypsin cleaved the wild-type PPE as a control
